# Measurements as given in IntAct's records for PubMed 19513107.
# B1: STE20-related kinase adapter protein alpha (Homo sapiens), Q7RTN6-1 (parent)
# chain: MSFLVSKPERIRRWVSEKFIVEGLRDLELFGEQPPGDTRRKTNDASSESIASFSKQEVMSSFLPEGGCYELLTVIGKGFEDLMTVNLARYKPTGEYVTVRRINLEACSNEMVTFLQGELHVSKLFNHPNIVPYRATFIADNELWVVTSFMAYGSAKDLICTHFMDGMNELAIAYILQGVLKALDYIHHMGYVHRSVKASHILISVDGKVYLSGLRSNLSMISHGQRQRVVHDFPKYSVKVLPWLSPEVLQQNLQGYDAKSDIYSVGITACELANGHVPFKDMPATQMLLEKLNGTVPCLLDTSTIPAEELTMSPSRSVANSGLSDSLTTSTPRPSNGDSPSHPYHRTFSPHFHHFVEQCLQRNPDARPSASTLLNHSFFKQIKRRASEALPELLRPVTPITNFEGSQSQDHSGIFGLVTNLEELEVDDWEF
# partner: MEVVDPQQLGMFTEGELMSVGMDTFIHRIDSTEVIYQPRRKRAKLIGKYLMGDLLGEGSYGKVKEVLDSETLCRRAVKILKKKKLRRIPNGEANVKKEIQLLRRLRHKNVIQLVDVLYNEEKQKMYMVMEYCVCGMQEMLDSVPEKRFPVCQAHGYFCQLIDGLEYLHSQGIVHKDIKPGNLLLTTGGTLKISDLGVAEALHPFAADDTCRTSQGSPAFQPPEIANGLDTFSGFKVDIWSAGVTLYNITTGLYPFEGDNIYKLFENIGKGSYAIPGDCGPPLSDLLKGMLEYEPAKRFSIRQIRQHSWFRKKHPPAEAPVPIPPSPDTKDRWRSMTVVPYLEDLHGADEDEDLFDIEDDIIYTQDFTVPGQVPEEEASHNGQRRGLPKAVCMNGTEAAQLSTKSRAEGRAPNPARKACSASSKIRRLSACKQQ
# B2: STE20-related kinase adapter protein alpha (Homo sapiens), Q7RTN6-1 (parent)
# chain: B1 chain
# partner: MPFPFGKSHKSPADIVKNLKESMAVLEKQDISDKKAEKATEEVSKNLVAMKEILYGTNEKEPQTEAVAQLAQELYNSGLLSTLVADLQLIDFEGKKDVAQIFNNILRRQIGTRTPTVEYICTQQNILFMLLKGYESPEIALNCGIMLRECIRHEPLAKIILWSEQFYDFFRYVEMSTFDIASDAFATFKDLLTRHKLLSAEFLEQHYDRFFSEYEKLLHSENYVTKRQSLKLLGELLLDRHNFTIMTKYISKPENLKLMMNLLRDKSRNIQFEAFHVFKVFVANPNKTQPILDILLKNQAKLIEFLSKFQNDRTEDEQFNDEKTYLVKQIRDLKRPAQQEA
# B3: Calcium-binding protein 39 (Homo sapiens), Q9Y376 (parent)
# chain: B2 partner
# partner: B1 partner
# B4: Calcium-binding protein 39 (Homo sapiens), Q9Y376 (parent)
# chain: B2 partner
# partner: B1 chain
# Variants of: B1
# Details: with stk11_human STK11, Q15831
row,effect of a mutation on the interaction,Variant
1,disrupting interaction,G76D;G78D;K197E;R215E
2,disrupting interaction,G76D;G78D;K197E
3,decreasing interaction,G76D;G78D;R215E

# Variants of: B2
# Details: with cab39_human CAB39, Q9Y376
row,effect of a mutation on the interaction,Variant
1,decreasing interaction,N109A
2,decreasing interaction,N126G
3,disrupting interaction,E105A
4,disrupting interaction,Y185F
5,disrupting interaction,I138Q

# Variants of: B3
# Details: with stk11_human STK11, Q15831
row,effect of a mutation on the interaction,Variant
1,disrupting interaction,R227A;R240A
2,disrupting interaction,R227A;R240A;M260A

# Variants of: B4
# Details: with STRADA
row,Variant,effect of a mutation on the interaction
1,F178A,disrupting interaction
2,I145A,disrupting interaction
3,E93A,disrupting interaction
4,F92A,disrupting interaction
5,R107A,disrupting interaction
6,K96A,disrupting interaction

# The remaining lines, values ahead:
row,effect of a mutation on the interaction,Variant
1,disrupting interaction,Q228A
2,disrupting interaction,S182A
3,disrupting interaction,Y223A
4,disrupting interaction,M260A

# Variants of: B4
# Details: with STRADA
# Remark: another data set of the same source
row,effect of a mutation on the interaction,Variant
1,disrupting interaction,R227A

# Variants of: B4
# Details: with STRADA
# Remark: another data set of the same source
row,effect of a mutation on the interaction,Variant
1,disrupting interaction,R227A;M260A
